# From patent US20150203577A1 (Chugai, published 2015)
# Residue numbers refer to the chain shown, from its start.
# T1: mouse FcγRIII extracellular domain, C-terminal His tag (mouse, UniProt P08508 31-215)
# T1 construct: also called mFcγRIII; mFcgRIII
# T1 chain: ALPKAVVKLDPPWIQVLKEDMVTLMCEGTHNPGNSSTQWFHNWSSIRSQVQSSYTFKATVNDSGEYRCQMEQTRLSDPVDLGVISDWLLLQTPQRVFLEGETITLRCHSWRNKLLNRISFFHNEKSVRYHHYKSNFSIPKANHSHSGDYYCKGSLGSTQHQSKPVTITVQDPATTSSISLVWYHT
# T2: mouse FcγRII extracellular domain, C-terminal His tag (mouse, UniProt P08101 30-210)
# T2 construct: also called mFcγRII; mFcgRII
# T2 sequence: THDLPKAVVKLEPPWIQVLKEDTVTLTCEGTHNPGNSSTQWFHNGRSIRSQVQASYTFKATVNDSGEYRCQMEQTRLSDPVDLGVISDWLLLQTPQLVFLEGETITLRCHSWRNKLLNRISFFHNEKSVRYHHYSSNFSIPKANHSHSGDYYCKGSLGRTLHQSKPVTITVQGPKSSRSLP
# B1: H237-MB808/MRAL-k0 (antibody, mouse IgG1, kappa)
# heavy: QVQLQESGPGLVKPSETLSLTCAVSGHSISHDHAWSWVRQPPGEGLEWIGFISYSGITNYNPSLQGRVTISRDNSKNTLYLQMNSLRAEDTAVYYCARSLARTTAMDYWGEGTLVTVSSAKTTPPSVYPLAPGSAAQTNSMVTLGCLVKGYFPEPVTVTWNSGSLSSGVHTFPAVLQSDLYTLSSSVTVPSSTWPSETVTCNVAHPASSTKVDKKIVPRDCGCKPCICEPNEVELVFIFPPKPKDVLTITLTPKVTCVVVDISKDDPEVQFSWFVDDVEVHTAQTQPREELFNSTFRSVSELPIMHQDWLNGKEFKCRVNSAGFPAPIEKTISKTKGRPKAPQVYTIPPPKEQMAKDKVSLTCMITDFFPEDITVEWQWNGQPAENYKNTQPIMDTDGSYFVYSKLNVQKSNWEAGNTFTCSVLHEGLHNHHTEKSLSHSPGK
# light: not shown
# notes: copies: 2 + 2
# B2: H237-MB828/MRAL-k0 (antibody, mouse IgG1, kappa)
# heavy: B1 heavy with L291Q, E329Y
# light: not shown
# notes: copies: 2 + 2
# B3: H237-MB821/MRAL-k0 (antibody, mouse IgG1, kappa)
# heavy: B1 heavy with L291Q, N320M, G323A, K330R
# light: not shown
# notes: copies: 2 + 2
# B4: H237-MB834/MRAL-k0 (antibody, mouse IgG1, kappa)
# heavy: B1 heavy with L291Q, G323A, E329Y, K330R
# light: not shown
# notes: copies: 2 + 2
# B5: H237-MB824/MRAL-k0 (antibody, mouse IgG1, kappa)
# heavy: B1 heavy with L291Q, A322D, G323A, P327Y
# light: not shown
# notes: copies: 2 + 2
# B6: H237-MB809/MRAL-k0 (antibody, mouse IgG1, kappa)
# heavy: B1 heavy with G323A, P327F
# light: not shown
# notes: copies: 2 + 2
# B7: H237-MB810/MRAL-k0 (antibody, mouse IgG1, kappa)
# heavy: B1 heavy with G323A, P327Y
# light: not shown
# notes: copies: 2 + 2
# B8: H237-MB812/MRAL-k0 (antibody, mouse IgG1, kappa)
# heavy: B1 heavy with L291Q, N320D
# light: not shown
# notes: copies: 2 + 2
# B9: H237-MB811/MRAL-k0 (antibody, mouse IgG1, kappa)
# heavy: B1 heavy with G323A, E329Y
# light: not shown
# notes: copies: 2 + 2
# B10: H237-MB823/MRAL-k0 (antibody, mouse IgG1, kappa)
# heavy: B1 heavy with L291Q, A322D, G323A, P327F
# light: not shown
# notes: copies: 2 + 2
# B11: H237-MB815/MRAL-k0 (antibody, mouse IgG1, kappa)
# heavy: B1 heavy with L291Q, N320D, G323A, E329Y
# light: not shown
# notes: copies: 2 + 2
# B12: H237-MB819/MRAL-k0 (antibody, mouse IgG1, kappa)
# heavy: B1 heavy with L291Q, N320M, G323A, P327Y
# light: not shown
# notes: copies: 2 + 2
# B13: H237-MB816/MRAL-k0 (antibody, mouse IgG1, kappa)
# heavy: B1 heavy with L291Q, N320M, A322D, G323A
# light: not shown
# notes: copies: 2 + 2
# B14: H237-MB813/MRAL-k0 (antibody, mouse IgG1, kappa)
# heavy: B1 heavy with L291Q, N320D, G323A, P327F
# light: not shown
# notes: copies: 2 + 2
# B15: H237-MB814/MRAL-k0 (antibody, mouse IgG1, kappa)
# heavy: B1 heavy with L291Q, N320D, G323A, P327Y
# light: not shown
# notes: copies: 2 + 2
# B16: H237-MB818/MRAL-k0 (antibody, mouse IgG1, kappa)
# heavy: B1 heavy with L291Q, N320M, G323A, P327F
# light: not shown
# notes: copies: 2 + 2
# B17: H237-MB825/MRAL-k0 (antibody, mouse IgG1, kappa)
# heavy: B1 heavy with L291Q, A322D, G323A, E329Y
# light: not shown
# notes: copies: 2 + 2
# B18: H237-MB833/MRAL-k0 (antibody, mouse IgG1, kappa)
# heavy: B1 heavy with L291Q, G323A, P327Y, K330R
# light: not shown
# notes: copies: 2 + 2
# B19: H237-MB831/MRAL-k0 (antibody, mouse IgG1, kappa)
# heavy: B1 heavy with L291Q, G323A, P327F, K330R
# light: not shown
# notes: copies: 2 + 2
# B20: H237-MB822/MRAL-k0 (antibody, mouse IgG1, kappa)
# heavy: B1 heavy with L291Q, A322D
# light: not shown
# notes: copies: 2 + 2
# B21: H237-MB829/MRAL-k0 (antibody, mouse IgG1, kappa)
# heavy: B1 heavy with L291Q, K330R
# light: not shown
# notes: copies: 2 + 2
# B22: H237-MB826/MRAL-k0 (antibody, mouse IgG1, kappa)
# heavy: B1 heavy with L291Q, P327F
# light: not shown
# notes: copies: 2 + 2
# B23: H237-MB817/MRAL-k0 (antibody, mouse IgG1, kappa)
# heavy: B1 heavy with L291Q, N320M
# light: not shown
# notes: copies: 2 + 2
# B24: H237-MB827/MRAL-k0 (antibody, mouse IgG1, kappa)
# heavy: B1 heavy with L291Q, P327Y
# light: not shown
# notes: copies: 2 + 2
# B25: H237-MB820/MRAL-k0 (antibody, mouse IgG1, kappa)
# heavy: B1 heavy with L291Q, N320M, G323A, E329Y
# light: not shown
# notes: copies: 2 + 2
# Molecular target: T1, mouse FcγRIII extracellular domain, …
# Assay: SPR (Biacore T200), antibody captured on Protein L, mFcγR analyte
# Description: (§1) Each altered antibody was analyzed for its interaction with each Fcγ receptor prepared above using Biacore T100 (GE Healthcare Japan Corp.), Biacore T200 (GE Healthcare Japan Corp.), Biacore A100, or Biacore 4000. The running buffer used was HBS-EP+ (GE Healthcare Japan Corp.). The assay temperature was set to 25° C. The sensor chips used were chips prepared by immobilizing Protein L (ACTIGEN or BioVision) onto Series S Sensor Chip CM5 (GE Healthcare Japan Corp.) or Series S Sensor Chip CM4 (GE Healthcare Japan Corp.) by the amine coupling method.
# (§2) In order to calculate the KD value of each altered antibody for FcγR, kinetic analysis was conducted according to the following method: first, the antibody of interest was captured onto any of these chips and allowed to interact with mFcγR diluted with a running buffer. For the obtained sensorgram, the assay results were globally fit into the 1:1 Langmuir binding model using Biacore Evaluation Software to calculate an association rate constant ka (L/mol/s) and a dissociation rate constant kd (1/s). From these values, the dissociation constant KD (mol/L) was calculated.
Binder,Kd,relative mFcγRIII-binding activity (mIgG1 = 1)
B1,359 nM,0.8 fold vs H237-mIgG1/MRAL-k0
B2,571 nM,0.5 fold vs H237-mIgG1/MRAL-k0
B3,625 nM,0.5 fold vs H237-mIgG1/MRAL-k0
B4,976 nM,0.3 fold vs H237-mIgG1/MRAL-k0
B5,500 nM,0.6 fold vs H237-mIgG1/MRAL-k0
B6,638 nM,0.4 fold vs H237-mIgG1/MRAL-k0
B7,546 nM,0.5 fold vs H237-mIgG1/MRAL-k0
B8,418 nM,0.7 fold vs H237-mIgG1/MRAL-k0
B9,654 nM,0.4 fold vs H237-mIgG1/MRAL-k0
B10,575 nM,0.5 fold vs H237-mIgG1/MRAL-k0
B11,938 nM,0.3 fold vs H237-mIgG1/MRAL-k0
B12,872 nM,0.3 fold vs H237-mIgG1/MRAL-k0
B13,431 nM,0.7 fold vs H237-mIgG1/MRAL-k0
B14,951 nM,0.3 fold vs H237-mIgG1/MRAL-k0
B15,826 nM,0.3 fold vs H237-mIgG1/MRAL-k0
B16,979 nM,0.3 fold vs H237-mIgG1/MRAL-k0
B17,564 nM,0.5 fold vs H237-mIgG1/MRAL-k0
B18,630 nM,0.4 fold vs H237-mIgG1/MRAL-k0
B19,716 nM,0.4 fold vs H237-mIgG1/MRAL-k0
B20,304 nM,0.9 fold vs H237-mIgG1/MRAL-k0
B21,445 nM,0.6 fold vs H237-mIgG1/MRAL-k0
B22,829 nM,0.3 fold vs H237-mIgG1/MRAL-k0
B23,539 nM,0.5 fold vs H237-mIgG1/MRAL-k0
B24,744 nM,0.4 fold vs H237-mIgG1/MRAL-k0
B25,854 nM,0.3 fold vs H237-mIgG1/MRAL-k0

# Molecular target: T2, mouse FcγRII extracellular domain, …
# Assay: as above
# Description: as §1, §2
Binder,Kd,relative mFcγRII-binding activity (mIgG1 = 1)
B1,7.19 nM,29.2 fold vs H237-mIgG1/MRAL-k0
B2,7.4 nM,28.4 fold vs H237-mIgG1/MRAL-k0
B3,8.6 nM,24.4 fold vs H237-mIgG1/MRAL-k0
B4,12.4 nM,17 fold vs H237-mIgG1/MRAL-k0
B5,7.51 nM,28 fold vs H237-mIgG1/MRAL-k0
B6,11.1 nM,19 fold vs H237-mIgG1/MRAL-k0
B7,10.1 nM,20.8 fold vs H237-mIgG1/MRAL-k0
B8,6.28 nM,33.4 fold vs H237-mIgG1/MRAL-k0
B9,9.45 nM,22.2 fold vs H237-mIgG1/MRAL-k0
B10,8.39 nM,25 fold vs H237-mIgG1/MRAL-k0
B11,12 nM,17.6 fold vs H237-mIgG1/MRAL-k0
B12,11.6 nM,18.1 fold vs H237-mIgG1/MRAL-k0
B13,6.9 nM,30.4 fold vs H237-mIgG1/MRAL-k0
B14,12.9 nM,16.3 fold vs H237-mIgG1/MRAL-k0
B15,11.7 nM,18 fold vs H237-mIgG1/MRAL-k0
B16,13.5 nM,15.6 fold vs H237-mIgG1/MRAL-k0
B17,7.38 nM,28.4 fold vs H237-mIgG1/MRAL-k0
B18,8.31 nM,25.3 fold vs H237-mIgG1/MRAL-k0
B19,9.4 nM,22.3 fold vs H237-mIgG1/MRAL-k0
B20,4.8 nM,43.8 fold vs H237-mIgG1/MRAL-k0
B21,6.22 nM,33.8 fold vs H237-mIgG1/MRAL-k0
B22,11.4 nM,18.5 fold vs H237-mIgG1/MRAL-k0
B23,7.38 nM,28.5 fold vs H237-mIgG1/MRAL-k0
B24,9.77 nM,21.5 fold vs H237-mIgG1/MRAL-k0
B25,10.8 nM,19.5 fold vs H237-mIgG1/MRAL-k0
